Measurements taken from article PMC9482650, “Quantitative fragmentomics allow affinity mapping of interactomes” (Nature Communications, 2022).

T1: PARD3B_1, Q8TEW8
T1 sequence (Q8TEW8 196-299, limits assumed, looked up): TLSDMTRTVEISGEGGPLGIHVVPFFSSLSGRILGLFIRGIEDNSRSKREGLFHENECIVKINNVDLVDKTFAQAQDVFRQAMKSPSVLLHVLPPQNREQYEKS

T2: DLG3_1, Q92796
T2 sequence (Q92796 125-227, limits assumed, looked up): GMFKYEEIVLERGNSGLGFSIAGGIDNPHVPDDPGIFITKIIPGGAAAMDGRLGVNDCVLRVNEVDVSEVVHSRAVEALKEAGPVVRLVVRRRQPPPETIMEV

T3: SIPA1L2, Q9P2F8
T3 sequence (Q9P2F8 945-1036, limits assumed, looked up): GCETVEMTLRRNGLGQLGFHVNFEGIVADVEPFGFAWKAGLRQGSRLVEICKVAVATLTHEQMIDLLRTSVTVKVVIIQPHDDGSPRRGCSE

T4: LNX2_2, Q8N448
T4 sequence (Q8N448 334-432, limits assumed, looked up): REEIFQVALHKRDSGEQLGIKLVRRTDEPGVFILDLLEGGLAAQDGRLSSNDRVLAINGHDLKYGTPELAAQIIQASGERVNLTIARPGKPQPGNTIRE

T5: DFNB31_3, Q9P202
T5 sequence (Q9P202 811-907, limits assumed, looked up): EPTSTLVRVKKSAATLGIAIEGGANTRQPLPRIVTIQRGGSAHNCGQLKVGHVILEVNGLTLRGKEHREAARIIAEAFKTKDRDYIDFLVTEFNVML

T6: GRIP1_7, Q9Y3R0
T6 sequence (Q9Y3R0 999-1096, limits assumed, looked up): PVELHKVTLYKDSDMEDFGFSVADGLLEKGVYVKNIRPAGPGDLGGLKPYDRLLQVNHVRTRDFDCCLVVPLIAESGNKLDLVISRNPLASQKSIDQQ

T7: GRIP1_4, Q9Y3R0
T7 sequence (Q9Y3R0 467-571, limits assumed, looked up): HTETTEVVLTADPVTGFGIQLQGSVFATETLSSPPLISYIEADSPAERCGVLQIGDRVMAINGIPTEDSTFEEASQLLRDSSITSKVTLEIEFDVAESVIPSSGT

T8: LRRC7, Q96NW7
T8 sequence (Q96NW7 1440-1537, limits assumed, looked up): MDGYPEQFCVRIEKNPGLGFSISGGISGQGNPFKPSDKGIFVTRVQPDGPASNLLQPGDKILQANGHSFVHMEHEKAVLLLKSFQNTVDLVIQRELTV

T9: MPDZ_10, O75970
T9 sequence (O75970 1624-1722, limits assumed, looked up): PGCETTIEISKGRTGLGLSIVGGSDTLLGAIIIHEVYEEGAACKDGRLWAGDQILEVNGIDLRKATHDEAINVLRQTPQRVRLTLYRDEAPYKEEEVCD

T10: PCLO, Q9Y6V0
T10 sequence (Q9Y6V0 4491-4600, limits assumed, looked up): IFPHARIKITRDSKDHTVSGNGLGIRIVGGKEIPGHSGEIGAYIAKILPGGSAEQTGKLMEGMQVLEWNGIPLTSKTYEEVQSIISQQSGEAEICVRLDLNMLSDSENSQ

T11: TIAM2, Q8IVF5
T11 sequence (Q8IVF5 885-986, limits assumed, looked up): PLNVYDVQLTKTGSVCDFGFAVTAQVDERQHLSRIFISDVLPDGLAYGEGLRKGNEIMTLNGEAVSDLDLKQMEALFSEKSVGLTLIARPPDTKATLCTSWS


Each binder was assayed against SCRIB_2, Q14160 (assay: holdup assay). Details: plain residues with an end cap or a label only (N-terminal biotin on a linker: ado-ado).
SCRIB_2, Q14160, sequence (Q14160 857-960): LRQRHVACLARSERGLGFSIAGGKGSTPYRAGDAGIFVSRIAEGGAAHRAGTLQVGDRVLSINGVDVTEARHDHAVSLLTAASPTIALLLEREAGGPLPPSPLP
Set-up: key: below the threshold = too weak to quantify, mostly under pKd 3.1 to 4

Row | pKd | Binder
1 | below the threshold | LDKESFLTWL [YAP1, P46937]

The binders below were run against DLG2_2, Q15700 (assay: holdup assay). Details: plain residues with an end cap or a label only (N-terminal biotin on a linker: ado-ado).
DLG2_2, Q15700, sequence (Q15700 189-283): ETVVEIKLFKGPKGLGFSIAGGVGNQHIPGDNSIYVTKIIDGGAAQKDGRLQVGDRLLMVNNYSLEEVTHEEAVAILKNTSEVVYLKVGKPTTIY
Set-up: key: below the threshold = too weak to quantify, mostly under pKd 3.1 to 4

Row | pKd | Binder
2 | below the threshold | LDKESFLTWL [YAP1, P46937]

The binders below were run against AHNAK1, Q09666 (assay: holdup assay). Details: plain residues with an end cap or a label only (N-terminal biotin on a linker: ado-ado).
AHNAK1, Q09666, sequence (Q09666 4-100): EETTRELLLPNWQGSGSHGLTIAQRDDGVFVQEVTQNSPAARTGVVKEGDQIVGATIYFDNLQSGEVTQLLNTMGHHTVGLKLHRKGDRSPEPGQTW
Set-up: key: below the threshold = too weak to quantify, mostly under pKd 3.1 to 4

Row | pKd | Binder
3 | below the threshold | LDKESFLTWL [YAP1, P46937]

These binders were tested against Inadl_1, Q8NI35 (assay: holdup assay). Details: plain residues with an end cap or a label only (N-terminal biotin on a linker: ado-ado).
Inadl_1, Q8NI35, sequence (Q8NI35 113-229): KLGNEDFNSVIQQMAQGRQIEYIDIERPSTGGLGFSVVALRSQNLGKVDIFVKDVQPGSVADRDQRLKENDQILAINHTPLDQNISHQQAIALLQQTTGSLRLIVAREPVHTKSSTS
Set-up: key: below the threshold = too weak to quantify, mostly under pKd 3.1 to 4

Row | pKd | Binder
4 | 4.54 | LDKESFLTWL [YAP1, P46937]

The binders below were run against NOS1, P29475 (assay: holdup assay). Details: plain residues with an end cap or a label only (N-terminal biotin on a linker: ado-ado).
NOS1, P29475, sequence (P29475 9-101): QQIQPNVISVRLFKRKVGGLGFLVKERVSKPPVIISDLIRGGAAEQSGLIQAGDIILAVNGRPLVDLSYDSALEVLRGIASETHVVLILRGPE
Set-up: key: below the threshold = too weak to quantify, mostly under pKd 3.1 to 4

Row | pKd | Binder
5 | 4.03 | LDKESFLTWL [YAP1, P46937]

These binders were tested against T1, PARD3B_1, Q8TEW8 (assay: holdup assay). Details: plain residues with an end cap or a label only (N-terminal biotin on a linker: ado-ado).
Set-up: key: below the threshold = too weak to quantify, mostly under pKd 3.1 to 4

Row | pKd | Binder
6 | 4.44 | LDKESFLTWL [YAP1, P46937]

These binders were tested against T2, DLG3_1, Q92796 (assay: holdup assay). Details: plain residues with an end cap or a label only (N-terminal biotin on a linker: ado-ado).
Set-up: key: below the threshold = too weak to quantify, mostly under pKd 3.1 to 4

Row | pKd | Binder
7 | below the threshold | LDKESFLTWL [YAP1, P46937]

These binders were tested against T3, SIPA1L2, Q9P2F8 (assay: holdup assay). Details: plain residues with an end cap or a label only (N-terminal biotin on a linker: ado-ado).
Set-up: key: below the threshold = too weak to quantify, mostly under pKd 3.1 to 4

Row | pKd | Binder
8 | below the threshold | LDKESFLTWL [YAP1, P46937]

These binders were tested against PDLIM1, O00151 (assay: holdup assay). Details: plain residues with an end cap or a label only (N-terminal biotin on a linker: ado-ado).
PDLIM1, O00151, sequence (O00151 1-87): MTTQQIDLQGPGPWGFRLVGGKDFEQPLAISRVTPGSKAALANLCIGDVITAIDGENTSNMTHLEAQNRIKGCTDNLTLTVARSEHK
Set-up: key: below the threshold = too weak to quantify, mostly under pKd 3.1 to 4

Row | pKd | Binder
9 | 4.1 | LDKESFLTWL [YAP1, P46937]

What follows are binders tested against NHERF4_2, Q86UT5 (assay: holdup assay). Details: plain residues with an end cap or a label only (N-terminal biotin on a linker: ado-ado).
NHERF4_2, Q86UT5, sequence (Q86UT5 220-308): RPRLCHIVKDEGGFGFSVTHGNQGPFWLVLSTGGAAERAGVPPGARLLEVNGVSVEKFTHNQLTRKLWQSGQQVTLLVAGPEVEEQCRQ
Set-up: key: below the threshold = too weak to quantify, mostly under pKd 3.1 to 4

Row | pKd | Binder
10 | below the threshold | LDKESFLTWL [YAP1, P46937]

The binders below were run against T4, LNX2_2, Q8N448 (assay: holdup assay). Details: plain residues with an end cap or a label only (N-terminal biotin on a linker: ado-ado).
Set-up: key: below the threshold = too weak to quantify, mostly under pKd 3.1 to 4

Row | pKd | Binder
11 | 4.38 | LDKESFLTWL [YAP1, P46937]

These binders were tested against DLG1_1, Q12959 (assay: holdup assay). Details: plain residues with an end cap or a label only (N-terminal biotin on a linker: ado-ado).
Set-up: key: below the threshold = too weak to quantify, mostly under pKd 3.1 to 4

Row | pKd | Binder
12 | 4.01 | LDKESFLTWL [YAP1, P46937]

What follows are binders tested against T5, DFNB31_3, Q9P202 (assay: holdup assay). Details: plain residues with an end cap or a label only (N-terminal biotin on a linker: ado-ado).
Set-up: key: below the threshold = too weak to quantify, mostly under pKd 3.1 to 4

Row | pKd | Binder
13 | 5.37 | LDKESFLTWL [YAP1, P46937]

The binders below were run against MAGI2_3, Q86UL8 (assay: holdup assay). Details: plain residues with an end cap or a label only (N-terminal biotin on a linker: ado-ado).
MAGI2_3, Q86UL8, sequence (Q86UL8 600-682): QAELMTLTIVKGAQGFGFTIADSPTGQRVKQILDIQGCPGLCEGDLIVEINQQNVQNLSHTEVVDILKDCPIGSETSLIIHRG
Set-up: key: below the threshold = too weak to quantify, mostly under pKd 3.1 to 4

Row | pKd | Binder
14 | below the threshold | LDKESFLTWL [YAP1, P46937]

These binders were tested against SCRIB_3, Q14160 (assay: holdup assay). Details: plain residues with an end cap or a label only (N-terminal biotin on a linker: ado-ado).
SCRIB_3, Q14160, sequence (Q14160 999-1103): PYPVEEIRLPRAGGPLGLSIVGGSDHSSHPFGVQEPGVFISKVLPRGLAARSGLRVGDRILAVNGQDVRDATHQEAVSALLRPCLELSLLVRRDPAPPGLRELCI
Set-up: key: below the threshold = too weak to quantify, mostly under pKd 3.1 to 4

Row | pKd | Binder
15 | 5.02 | LDKESFLTWL [YAP1, P46937]

Each binder was assayed against T6, GRIP1_7, Q9Y3R0 (assay: holdup assay). Details: plain residues with an end cap or a label only (N-terminal biotin on a linker: ado-ado).
Set-up: key: below the threshold = too weak to quantify, mostly under pKd 3.1 to 4

Row | pKd | Binder
16 | below the threshold | LDKESFLTWL [YAP1, P46937]

The binders below were run against T7, GRIP1_4, Q9Y3R0 (assay: holdup assay). Details: plain residues with an end cap or a label only (N-terminal biotin on a linker: ado-ado).
Set-up: key: below the threshold = too weak to quantify, mostly under pKd 3.1 to 4

Row | pKd | Binder
17 | below the threshold | LDKESFLTWL [YAP1, P46937]

The binders below were run against GRID2IP_1, A4D2P6 (assay: holdup assay). Details: plain residues with an end cap or a label only (N-terminal biotin on a linker: ado-ado).
GRID2IP_1, A4D2P6, sequence (A4D2P6 1-87): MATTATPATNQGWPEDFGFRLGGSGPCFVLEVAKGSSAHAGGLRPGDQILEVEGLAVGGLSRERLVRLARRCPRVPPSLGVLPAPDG
Set-up: key: below the threshold = too weak to quantify, mostly under pKd 3.1 to 4

Row | pKd | Binder
18 | below the threshold | LDKESFLTWL [YAP1, P46937]

These binders were tested against T8, LRRC7, Q96NW7 (assay: holdup assay). Details: plain residues with an end cap or a label only (N-terminal biotin on a linker: ado-ado).
Set-up: key: below the threshold = too weak to quantify, mostly under pKd 3.1 to 4

Row | pKd | Binder
19 | 4.17 | LDKESFLTWL [YAP1, P46937]

The binders below were run against LAP2, Q96RT1 (assay: holdup assay). Details: plain residues with an end cap or a label only (N-terminal biotin on a linker: ado-ado).
LAP2, Q96RT1, sequence (Q96RT1 other isoform, or with tags, fused parts or gaps): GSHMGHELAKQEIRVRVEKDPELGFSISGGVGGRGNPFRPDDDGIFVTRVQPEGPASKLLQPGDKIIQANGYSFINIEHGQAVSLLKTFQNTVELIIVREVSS
Set-up: key: below the threshold = too weak to quantify, mostly under pKd 3.1 to 4

Row | pKd | Binder
20 | 4.2 | LDKESFLTWL [YAP1, P46937]

Each binder was assayed against T9, MPDZ_10, O75970 (assay: holdup assay). Details: plain residues with an end cap or a label only (N-terminal biotin on a linker: ado-ado).
Set-up: key: below the threshold = too weak to quantify, mostly under pKd 3.1 to 4

Row | pKd | Binder
21 | below the threshold | LDKESFLTWL [YAP1, P46937]

What follows are binders tested against TJP1_2, Q07157 (assay: holdup assay). Details: plain residues with an end cap or a label only (N-terminal biotin on a linker: ado-ado).
TJP1_2, Q07157, sequence (Q07157 181-274): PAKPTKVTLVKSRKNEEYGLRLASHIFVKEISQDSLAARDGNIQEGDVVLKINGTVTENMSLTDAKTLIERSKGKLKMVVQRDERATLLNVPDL
Set-up: key: below the threshold = too weak to quantify, mostly under pKd 3.1 to 4

Row | pKd | Binder
22 | 3.67 | LDKESFLTWL [YAP1, P46937]

What follows are binders tested against DLG4_2, P78352 (assay: holdup assay). Details: plain residues with an end cap or a label only (N-terminal biotin on a linker: ado-ado).
DLG4_2, P78352, sequence (P78352 155-259): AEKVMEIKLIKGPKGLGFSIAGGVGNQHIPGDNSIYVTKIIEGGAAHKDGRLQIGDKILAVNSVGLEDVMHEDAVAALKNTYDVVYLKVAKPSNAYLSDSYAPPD
Set-up: key: below the threshold = too weak to quantify, mostly under pKd 3.1 to 4

Row | pKd | Binder
23 | below the threshold | LDKESFLTWL [YAP1, P46937]

Each binder was assayed against T10, PCLO, Q9Y6V0 (assay: holdup assay). Details: plain residues with an end cap or a label only (N-terminal biotin on a linker: ado-ado).
Set-up: key: below the threshold = too weak to quantify, mostly under pKd 3.1 to 4

Row | pKd | Binder
24 | 3.57 | LDKESFLTWL [YAP1, P46937]

Each binder was assayed against T11, TIAM2, Q8IVF5 (assay: holdup assay). Details: plain residues with an end cap or a label only (N-terminal biotin on a linker: ado-ado).
Set-up: key: below the threshold = too weak to quantify, mostly under pKd 3.1 to 4

Row | pKd | Binder
25 | 3.6 | LDKESFLTWL [YAP1, P46937]

These binders were tested against HTRA1, Q92743 (assay: holdup assay). Details: plain residues with an end cap or a label only (N-terminal biotin on a linker: ado-ado).
HTRA1, Q92743, sequence (Q92743 360-477): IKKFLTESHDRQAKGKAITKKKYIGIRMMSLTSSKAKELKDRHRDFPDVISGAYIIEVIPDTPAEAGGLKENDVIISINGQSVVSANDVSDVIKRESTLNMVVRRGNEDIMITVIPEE
Set-up: key: below the threshold = too weak to quantify, mostly under pKd 3.1 to 4

Row | pKd | Binder
26 | 5.58 | LDKESFLTWL [YAP1, P46937]

Each binder was assayed against MAGI2_6, Q86UL8 (assay: holdup assay). Details: plain residues with an end cap or a label only (N-terminal biotin on a linker: ado-ado).
MAGI2_6, Q86UL8, sequence (Q86UL8 1141-1229): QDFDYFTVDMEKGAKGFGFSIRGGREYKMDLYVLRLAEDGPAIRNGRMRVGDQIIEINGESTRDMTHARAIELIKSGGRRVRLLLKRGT
Set-up: key: below the threshold = too weak to quantify, mostly under pKd 3.1 to 4

Row | pKd | Binder
27 | 4.82 | LDKESFLTWL [YAP1, P46937]
